Experiment in all cases: ATP-PPi exchange reaction (amino acid activation)
The subject of data set [1] is Asp-Phe-His6, hybrid Asp-Phe dipeptide synthetase (Asp module of Bacillus subtilis ATCC 21332 srfA-B, Phe minimal module of Bacillus brevis ATCC 8185 tycA) …. It counts as biochemical, Bacillus subtilis ATCC 21332 / Bacillus brevis ATCC 8185. To be noted: 37°C. The procedure:
(§1) Specificity of amino acid activation was determined indirectly by incorporation of labelled ^32PPi into ATP during reverse reaction (Lee, S.G. & Lipmann, F.; Tyrocidine synthetase system; Methods Enzymol. 43, 1975, p.585-602). For this purpose 20 pmol of each enzyme was incubated with 1 mM amino acid, 1 mM ATP, 0,1 mM PPi, 50 mM HEPES, 100 mM NaCl and 10 mM MgCl2 and 2 mCi ^32PPi at 37°C in a total volume of 100 µL. Reactions were quenched after 10 min by adding 500 µL of a solution containing 100 mM NaPPi, 560 mM perchloric acid and 1,2% (w/v) active charcoal. The mixture was centrifuged at 13000 rpm for 1 min. The pellet was washed and resuspended twice with 1 mL H2O.
(§2) Incorporation of labelled ATP (adsorbed to the charcoal) was detected by measuring radioactivity of the precipitate. […] KM values for Asp and ATP were determined to be 3,5 mM and 0,9 mM respectively. KM values for Leu and ATP were detected to be 0,3 mM and 0,6 mM, respectively.
(§3) The KM value for Phe was determined to be about 50 µM.

Data set [2] concerns Asp-Phe-TE-His6, hybrid Asp-Phe dipeptide synthetase with integrated srfA-C thiolation and TE domain, His6-tagged. In kind it is biochemical, Bacillus subtilis ATCC 21332 / Bacillus brevis ATCC 8185. To be noted: 37°C. How it is done:
as §1, §2, §3

Substrate in data set [3]: CC(C)C[C@H](N)C(=O)O
In kind it is biochemical, Bacillus subtilis ATCC 21332. To be noted: other: ATP-PPi exchange, 37°C. The procedure: as §1, §2

Substrate in data set [4]: Nc1ncnc2c1ncn2[C@@H]1O[C@H](COP(=O)(O)OP(=O)(O)OP(=O)(O)O)[C@@H](O)[C@H]1O
In kind it is biochemical, Bacillus subtilis ATCC 21332. Conditions: other: ATP-PPi exchange, 37°C. The procedure:
as §1, §2

Substrate in data set [5]: N[C@@H](CC(=O)O)C(=O)O
In kind it is biochemical, Bacillus subtilis ATCC 21332. To be noted: other: ATP-PPi exchange, 37°C. How it is done: as §1, §2

Broadly, the Km is the substrate concentration at which the rate is half of its maximum.

Regarding `N[C@@H](Cc1ccccc1)C(=O)O` [Phe, L-phenylalanine], the Km in data set [1] and in data set [2] was roughly 50 µM in each case.

B1: Asp-Leu-His6, Asp-Leu dimodular peptide synthetase from Bacillus subtilis ATCC 21332 surfactin synthetase (srfA-B), His6-tagged (Bacillus subtilis subsp. … (protein)
chain: PNVRLSDVDLLSSAETAALLEERHMTQITEATFAALFEKQAQQTPDHSAVKAGGNLLTYRELDEQANQLAHHLRAQGAGNEDIVAIVMDRSAEVMVSILGVMKAGAAFLPIDPDTPEERIRYSLEDSGAKFAVVNERNMTAIGQYEGIIVSLDDGKWRNESKERPSSISGSRNLAYVIYTSGTTGKPKGVQIEHRNLTNYVSWFSEEAGLTENDKTVLLSSYAFDLGYTSMFPVLLGGGELHIVQKETYTAPDEIAHYIKEHGITYIKLTPSLFHTIVNTASFAKDANFESLRLIVLGGEKIIPTDVIAFRKMYGHTEFINHYGPTEATIGAIAGRVDLYEPDAFAKRPTIGRPIANAGALVLNEALKLVPPGASGQLYITGQGLARGYLNRPQLTAERFVENPYSPGSLMYKTGDVVRRLSDGTLAFIGRADDQVKIRGYRIEPKEIETVMLSLSGIQEAVVLAVSEGGLQELCAYYTSDQDIEKAELRYQLSLTLPSHMIPAFFVQVDAIPLTANGKTDRNALPKPNAAQSGGKALAAPETALEESLCRIWQKTLGIEAIGIDDNFFDLGGHSLKGMMLIANIQAELEKSVPLKALFEQPTVRQLAAYMEASAVSGGHQVLKPADKQDMYPLSSAQKRMYVLNQLDRQTISYNMPSVLLMEGELDISRLRDSLNQLVNRHESLRTSFMEANGEPVQRIIEKAEVDLHVFEAKEDEADQKIKEFIRPFDLNDAPLIRAALLRIEAKKHLLLLDMHHIIADGVSRGIFVKELALLYKGEQLPEPTLHYKDFAVWQNEAEQKERMKEHEAYWMSVLSGELPELDLPLDYARPPVQSFKGDTIRFRTGSETAKAVEKLLAETGTTLHMVLHAVFHVFLSKISGQRDIVIGSVTAGRTNADVQDMPGMFVNTLALRMEAKEQQTFAELLELAKQTNLSALEHQEYPFEDLVNQLDLPRDMSRNPLFNVMVTTENPDKEQLTLQNLSISPYEAHQGTSKFDLTLGGFTDENGIGLQLEYATDLFAKETAEKWSEYVLRLLKAVADNPNQPLSSLLLVTETEKQALLEAWKGKALPVPTDKTVHQLFEETVQRHKDRPAVTYNGQSWTYGELNAKANRLARILMDCGISPDDRVGVLTKPSLEMSAAVLGVLKAGAAFVPIDPDYPDQRIEYILQDSGAKLLLKQEGISVPDSYTGDVILLDGSRTILSLPLDENDEGNPETAVTAENLAYMIYTSGTTGQPKGVMVEHHALVNLCFWHHDAFSMTAEDRSAKYAGFGFDASIWEMFPTWTIGAELHVIDEAIRLDIVRLNDYFETNGVTITFLPTQLAEQFMELENTSLRVLLTGGDKLKRAVKKPYTLVNNYGPTENTVVATSAEIHPEEGSLSIGRAIANTRVYILGEGNQVQPEGVAGELCVAGRGLARGYLNREDETAKRFVADPFVPGERMYRTGDLVKWVNGGIEYIGRIDQQVKVRGYRIELSEIEVQLAQLSEVQDAAVTAVKDKGGNTAIAAYVTPETADIEALKSTLKETLPDYMIPAFWVTLNELPVTANGKVDRKALPEPDIEAGSGEYKAPTTDMEELLAGIWQDVLGMSEVGVTDNFFSLGGDSIKGIQMASRLNQHGWKLEMKDLFQHPTIEELTQYVERAE
In the case of B1, the Km worked out at 300 µM in data set [3], 900 µM in data set [4] (ATP value paired with Asp (Asp activation)), 600 µM in data set [4] (ATP value paired with Leu (Leu activation)) and 3500 µM in data set [5].

Source of the values: patent publication EP1096011A1, “Microbiological production method for alpha-l-aspartyl-l-phenylalanine” (Holland Sweetener Company V.o.F., priority 1999, dated 2001).
